Measured values: publication PMC3749045

Target: NarXS1 (NarX periplasmic sensor domain, residues 38 - 151) (Escherichia coli K-12) (UniProt P0AFA2)
Test: crystal structure

NarXS1 (NarX periplasmic sensor domain, residues 38 - 151) (from UniProt P0AFA2 38-151) (domain or fragment)
stoichiometry N: 2
